Source: the nanobody polyreactivity screen of Harvey et al. (2022)

Assay: yeast display, Sf9 membrane polyspecificity reagent, FACS + sequencing; frameworks hold sequencing errors
How it was run: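 A nanobody's polyreactivity label depends on the gate it was sorted from. Yeast display cells were stained with 10% biotinylated, detergent-solubilized Sf9 membrane reagent for 1 hour at 4 °C, enriched on streptavidin microbeads and sorted by FACS. The low and high (top ~1%) gates were set on anti-HA fluorescence for expression and streptavidin fluorescence for reagent binding.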

Row | Sequence | polyreactivity (PSR sort gate)
1 | HVQLVESGGGLVQAGGSLRLSCAASGSTFGYNARGWYRQAPGKERELVAVITDSGGSTKYADSVKGRFTISRDNAKKTVYLQMNSLKPEDTAVYYCAKRSSQTRRAYDYWGQGTQVTVSS | low polyreactivity
2 | HVQLVESGGGLVQAGGSLRLSCAASGSTFILNTMGWYIQAPGKERKLVAAITRRGSSTYYADSVKGRFTISRDNAKNTGYLQMNSLKPEDTAVYFCAAFSYNLGMDYWGQGTKVTVSS | high polyreactivity
3 | HVQLVESGGGLVQAGGSLRLSCAASGSTFTYYAMGWYRQAPGKERELVAAITGSDGRTYYADSVKGRFTISRDNAKKTVYLEMNSLKPEDTAVYYCATDVPIREIDEFGYWGQGTQVTVSS | low polyreactivity
4 | HVQLVESGGGLVQAGGSLRLSCAASGSTFYRNAMGWYREAPGKEWEFVADITLGGGSTYYADSVKGRFTISRDNAKNTVYLQMNSLKPEDTAVYYCAVDYWQLNYDYWGQGTQVTVSS | low polyreactivity
5 | HVQLVESGGGLVQAGGSLRLSCAASRRTFGWYAMGWYRQAPGKERELVAAISLSGGSTYYADSVKGRFTISRDNAKNTVYLQRNSLKPDVTAVYDCAAADYWLGYDYWGQGSQVTVSS | low polyreactivity
6 | HVQLVESGGGLVQAGGSLRLSCAASVFILSPNTMGWYRQAPGKERELVAAISSDVSTYADSVKGRFTISRDNAKNTVYLQMNSLKPEDTAVYYCNADDFGYASYEYWGQGTQVTVSS | low polyreactivity
7 | HVQLVESGGGLVQEGGSLRLSCAASGSILALYAMGWDRQAPGKERELVAAISSGDSTSYADSVKGRFTISRDNAKNTVYLQMNSLKPEDTAVYYCAADRPIYPYPGKGFRYDYWGQGTQVTVSS | low polyreactivity
8 | HVQLVESGVGLVQAGGSLRLSCEASGFIFIRYAMGWYRQAPGQERELVASISSGGSTYYADSVKGRFTISRDNAKNTVYFQMNSLKPEDTAVFYCAAVFSKGLEGDYWGQGTEVTVSS | high polyreactivity
9 | HVQQQESGGGLEQAGGSLRLSCAASGNISYSRNMGWYRQAPGKERELVAAIDRGAITYYADSVKGRFTISRDNAKNTVYLQIYSLKPEDTAVYYCAAVYHDRWDHRYWGQGTQVTVSR | high polyreactivity
10 | HVQQQESGGGLVQAGGSLRLSCAASGYISVFIGMGWYRQSPGKERELVASIAYGAITYYTDSVKGRFTMSRDYAKNTEYLQMNSLKPEDTAVYYCATRRYYRYYNFWYYYWGQGTQVTVSS | high polyreactivity
11 | HVRLQESGGGLVQAGGSLRQSCAACGAISPYYDMGWYRLAPGKEREFVASIAHGGTTYYADSVKGRFTTSRDNAKNTVYLQMKSMKTEDTAVYYCAVDYDVWHSHIYRGQGTQVTVSS | high polyreactivity
12 | IIQAGGSLRLSCAASGRTFSGYARGWYRQAPGKERELIADITSGGSTYYADSVKGRFTISRDNAKNTVYLQMNSLKPEDTAVYYCSRDDRLAGDYWGQGTQVTVSS | low polyreactivity
13 | KDQLVESGGGLVQAGGSLRLSSAASGIRFYVHSMGWYRQAPGKERELDASITSSGGSTYYADSVKGRFTISRDKATNSVYLQMNSLKPEDTAVYYCNKERWPVTYREYDYWGQGTQVTVSS | low polyreactivity
14 | KVHLVESGGGLVQAGGSLRLSCAASGRIFRYYAMGWYRHAPGKERELVAAIRYLGASTYYADSVKGRFTISRDNAKNTVYLQMNSLKPEDTAVYYCNRTPRSKGNYWGQGTLVTVSS | high polyreactivity
15 | KVQLVESGAGLVQAGGSLRLSCAASVSNFTSHAMGWSRQAPGKEREFVAAISVGGGITYYADSVKGRFTISRDHEKNTVYLQMNSLNPEDTAVYYCDADGEYPHSDDFEYWGQVTQVTVSS | low polyreactivity
16 | KVQLVESGGGLDQAGGSLRLSCAASGIIFAYNVMGRYRQAPGKERELVAAIRWGGGSTYADSVKGRFSISRDNAKNTVYLQMTRLKPEDTAVYYCNVERWWWSRTYCVKYDYWGQGTQVNVSS | high polyreactivity
17 | KVQLVESGGGLVQAGGRLRLSCAASGFIFVPYPMGWYRQAPGKERELVATITGRGDSTYYADSVKGRFTISRDNAMNTVYLQMNSLKTDDTAVYYCAVDPIRLWAYDYWGQGTQVNVSS | low polyreactivity
18 | KVQLVESGGGLVQAGGSHRLSSAASGSTFDGYVMGLYRPAPGKERELVDAISSTGTRTYYADSVKGRFTISRDNATNTFYLQINSMKPEDTAVYYCAAEIDYRYRTVSYYYWGQGSQVTVSS | low polyreactivity
19 | KVQLVESGGGLVQAGGSLLLSCAASGRTFTYNAIGWYRQARGTERELVAVITNSGGSTYYADSVKGRYTISRDNAKNTVYLQRNRLKPEDTAVYYCAADYFSRYWYRFYYWGQGTQVTVSS | high polyreactivity
20 | KVQLVESGGGLVQAGGSLRLSCAASGFTLGYYAMGWYRQEPGKEREMVAAITSGGGTNYADSVKGRFTISRDNAKNTVYLQMNSLKPEDSAVYYCAARARWIYGMYSWGQGTQVTLSS | low polyreactivity
21 | KVQLVESGGGLVQAGGSLRLSCAASGRIFGRNAMGGYRQAPGKERELVAAINVSSGGTYYADSVKGRFTISRDNAKNTVYLQMNSLKPEDTAVYFCAARARWAGLRYTRYYYWGQGTQVTVSS | high polyreactivity
22 | KVQLVESGGGLVQAGGSLRLSCAASGRILVYNVMGWYRQAPGKEMEFVAAITSRDTSTYYADSVKGRFTISRDNAKNPVYLQMNSLKPEDTAVYYCAVRVGARVRYYSWGQGTQVTVSS | high polyreactivity
23 | KVQLVESGGGLVQAGGSLRLSCAASGRTFPYYVMGWYRQAHGKERELVAAIDVGGGSTYYADSVKGRFTISRDNAKNTVYLQMNSLKPEVTAVYYCAAQVDYLAHYGYWGQGTQVTVSS | low polyreactivity
24 | KVQLVESGGGLVQAGGSLRLSCAASGYIFSYYAMGWYRQAPGKERELVAAITASGGRTYYADSVKGRFTISRDNAKNTVYLQMNSQKPEDTAVYYCARASGIILQGQLVRWYRYNYLGQGTQVTVSS | high polyreactivity
25 | KVQLVESGGGLVQAGGSLRLSCAHSGYIFGYYAMGCYRQAPGKERELVAAISSGGNTNYADSVKGRYTISRDNAKTTVYLQMNSLKPEDTAVNYCATRDRYKRIRYDYWGQGTQVTVSS | high polyreactivity
26 | KVQLVESGGGLVQAGGSLRLSCPASGFTFKSYTMAWSSQAPGKERELVAAISRRDGSTYYADSVKGRFPISRDNAKNTVYFQMNSLKPEDTAVYYCNAYTYGSEFDYWGQGTQVTVST | high polyreactivity
27 | KVQLVESGGGLVQARGSLRLSCAASGRIIRYYVMGWYRQAPGKERELVASISWRGTSTYYADSVKGRFTISRDNAKNTVYLQMNSLKPEDTAVYYCNAARPGKNYDSWGQGTQVTVSS | high polyreactivity
28 | KVQLVESGGRVVQAGGSLRLSCAASGSIFGYNDMGWYRPAPGKERELVATITWGGGRTRYADSVKGRFTISRDNAKKTVYLQMNSLKPEETAVYYCARDRGKITPYDYWGQGTQVTVSS | low polyreactivity
29 | KVQLVESGSGLVQAGGSHSISCAASGGTIACYVMGWYRPAPGKEREFVATISWSGTSTYYADSVKGRFTISRDNAKNTVDLLMYSLKPEDTAVFYCNKPGSSWPDFYSYNYWGLGTQVTVSS | low polyreactivity
30 | LGQLQESGGGLVQAGGSLRLSCAASGDIFDADIMGWYREAPGKEREHVASITDGGSTNYADSVKGRFTISRDNAKNTVYLPMNSLKPENTAVLYCAAIAYPDLPTYFDYDSDYFDWGQGTQVTVSS | low polyreactivity
